T1: AR (Homo sapiens, UniProt P10275)
T1 sequence (P10275 1-920): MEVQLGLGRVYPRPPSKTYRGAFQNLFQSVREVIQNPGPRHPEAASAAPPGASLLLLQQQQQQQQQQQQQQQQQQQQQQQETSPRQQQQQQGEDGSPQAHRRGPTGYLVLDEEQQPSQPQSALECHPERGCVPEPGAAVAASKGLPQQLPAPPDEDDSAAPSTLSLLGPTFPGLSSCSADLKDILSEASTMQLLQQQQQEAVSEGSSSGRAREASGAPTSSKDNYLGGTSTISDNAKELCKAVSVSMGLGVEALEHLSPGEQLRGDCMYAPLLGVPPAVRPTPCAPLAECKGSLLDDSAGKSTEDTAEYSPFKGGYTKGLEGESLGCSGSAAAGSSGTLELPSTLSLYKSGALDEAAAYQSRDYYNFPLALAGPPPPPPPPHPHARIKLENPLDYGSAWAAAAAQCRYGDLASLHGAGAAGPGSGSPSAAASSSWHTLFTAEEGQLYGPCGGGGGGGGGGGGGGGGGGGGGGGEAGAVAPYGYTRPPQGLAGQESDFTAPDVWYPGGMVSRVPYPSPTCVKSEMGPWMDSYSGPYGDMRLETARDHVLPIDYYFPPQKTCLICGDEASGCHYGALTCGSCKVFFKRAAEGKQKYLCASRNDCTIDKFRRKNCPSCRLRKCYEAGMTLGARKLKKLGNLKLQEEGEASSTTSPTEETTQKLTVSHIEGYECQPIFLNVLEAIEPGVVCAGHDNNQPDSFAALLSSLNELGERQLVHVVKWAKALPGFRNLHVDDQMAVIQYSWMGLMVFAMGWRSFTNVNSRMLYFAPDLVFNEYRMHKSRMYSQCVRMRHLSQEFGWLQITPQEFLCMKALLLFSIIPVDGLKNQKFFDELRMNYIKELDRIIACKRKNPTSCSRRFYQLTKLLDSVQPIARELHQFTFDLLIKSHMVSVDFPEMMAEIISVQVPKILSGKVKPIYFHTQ

B1: AR42: androgen receptor variant according to the invention with the amino acid sequence indicated in Seq ID NO 2 (protein, listed as Homo sapiens)
chain: MILWLHSLETARDHVLPIDYYFPPQKTCLICGDEASGCHYGALTCGSCKVFFKRAAEGKQKYLCASRNDCTIDKFRRKNCPSCRLRKCYEAGMTLGARKLKKLGNLKLQEEGEASSTTSPTEETTQKLTVSHIEGYECQPIFLNVLEAIEPGVVCAGHDNNQPDSFAALLSSLNELGERQLVHVVKWAKALPGFRNLHVDDQMAVIQYSWMGLMVFAMGWRSFTNVNSRMLYFAPDLVFNEYRMHKSRMYSQCVRMRHLSQEFGWLQITPQEFLCMKALLLFSIIPVDGLKNQKFFDELRMNYIKELDRIIACKRKNPTSCSRRFYQLTKLLDSVQPIARELHQFTFDLLIKSHMVSVDFPEMMAEIISVQVPKILSGKVKPIYFHTQ
B2: AR32: androgen receptor variant according to the invention with the amino acid sequence indicated in Seq ID NO 4 (protein, listed as Homo sapiens)
chain: MILWLHSLETARDHVLPIDYYFPPQKTCLICGDEASGCHYGALTCGSCKVFFKRAAEGKQKYLCASRNDCTIDKFRRKNCPSCRLRKCYEAGMTLGARKLKKLGNLKLQEEGEASSTTSPTEETTQKLTVSHIEGYECQPIFLNVLEAIEPGVVCAGHDNNQPDSFAALLSSLNELGERQLVHVVKWAKALPGFRNLHVDDQMAVIQYSWMGLMVFAMGWRSFTNVNSRMLYFAPDLVFNEYRMHKSRMYSQCVRMRHLSQEFGWLQITPQEFLCMKALLLFSINCERAASVHF

Tests used:
[1] = system: MMTV promoter reporter plasmid in PC-3 cells; assay: Transactivation reporter assay: pSG5-AR42 co-transfixed with MMTV promoter reporter plasmid in PC-3 cells, treated with androgens; assay type: cell-based, human; conditions: 100 ng pSG5-AR42 + 100 ng MMTV reporter plasmid, R1881, testosterone or DHT at 10^-7 M
Description: 100 ng of pSG5-AR42 was co-transfixed in PC-3 together with 100 ng of a reporter plasmid, which contains the MMTV promoter. These cells were then treated with various androgens (R1881: metribolone; T: testosterone; DHT: 5α-dihydrotestosterone) with a final concentration of 10^−7 M.
A vector for the transient expression of AR42 or AR32 is built in the pSG5 plasmid (Stratagene). This vector is transfixed in CV-1 or PC-3 cells. Parallel to this, a reporter plasmid that contains one or more copies of a steroid response element or a selective androgen response element, coupled to a luciferase reporter gene, is cotransfixed. To find specific effectors of AR42 or AR32, a high-throughput screening of substance banks is to be performed. Substances that trigger the activity of the reporter gene at a concentration of 10^−6 M or less are further processed. The search for receptor antagonists is performed in the presence of 10^−9 M androgen, e.g., R1881. Substances are selected that at least divide in half the androgen induction at a concentration of 10^−6 M or less.

AR [2] = molecular target: T1, AR; assay: Transrepressing activity: pSG5-AR and different amounts of pSG5-AR42 co-transfixed in PC-3 cells with MMTV reporter plasmid; assay type: cell-based; set-up: expressed in transfected cells; conditions: 10 ng pSG5-AR, different amounts of pSG5-AR42, 100 ng MMTV reporter plasmid, R1881 10^-9 M
Description: 10 ng of pSG5-AR and different amounts of pSG5-AR42 were co-transfixed in PC-3 cells. In addition, 100 ng of a reporter plasmid, which contains the MMTV promoter, was transfixed.
(§1) A vector for the transient expression of AR42, AR32 or AR is built in the pSG5 plasmid (Stratagene). A constant amount of pSG5-AR and varying amounts of pSG5-AR42 or pSG5-AR32 are transfixed in CV-1 cells. In the control, a pSGS plasmid, which contains an irrelevant cDNA of similar length, is cotransfixed with the pSG5-AR. In addition, a reporter plasmid, which contains one or more copies of a steroid-response element or a selective androgen-response element, coupled to a luciferase reporter gene, is cotransfixed. After treatment with an androgen, an increase in the reporter gene activity is measured.

AR [3] = molecular target: T1, AR; assay: Transrepressing activity of AR42 and AR32 in CV-1 cells (luciferase reporter, Example 5); assay type: cell-based; set-up: expressed in transfected cells; host or cells: CV-1 cells; conditions: constant amount of pSG5-AR, varying amounts of pSG5-AR42 or pSG5-AR32, after treatment with an androgen
From the text: as §1

Row | Molecule | transactivating function (reporter gene activity) [1] | transrepressing activity (reporter gene activity of stimulated AR) (AR [2]) | transrepressing activity (reporter gene activity of stimulated AR) (AR [3])
1 | B1 | does not have any transactivating function | inhibited the transactivating effects of stimulated AR | inhibit these transactivating effects of stimulated AR
2 | B2 |  |  | inhibit these transactivating effects of stimulated AR

— patent US20020165381A1, “Human androgen receptor variants” (priority 2000, published 2002)
